From patent publication US20060067930A1 (Genentech, published 2006)

Biological target: T1, human FcγRIII (V158)
T1 construct: also called FcγRIIIA-Val158; CD16
Test: ELISA of 2H7 variants binding to human FcγRIII (V158)

T1 sequence (chain, as listed by the source limits assumed): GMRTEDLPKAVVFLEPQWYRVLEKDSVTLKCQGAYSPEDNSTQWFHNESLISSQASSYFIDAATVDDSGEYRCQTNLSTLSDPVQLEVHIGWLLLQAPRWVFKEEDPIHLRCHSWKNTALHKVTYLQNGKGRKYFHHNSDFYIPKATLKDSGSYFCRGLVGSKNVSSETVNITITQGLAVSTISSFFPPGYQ

B1: 2H7.v16 (antibody, human IgG1, kappa)
light chain: DIQMTQSPSSLSASVGDRVTITCRASSSVSYMHWYQQKPGKAPKPLIYAPSNLASGVPSRFSGSGSGTDFTLTISSLQPEDFATYYCQQWSFNPPTFGQGTKVEIKRTVAAPSVFIFPPSDEQLKSGTASVVCLLNNFYPREAKVQWKVDNALQSGNSQESVTEQDSKDSTYSLSSTLTLSKADYEKHKVYACEVTHQGLSSPVTKSFNRGEC
heavy chain: not shown
notes: Humanized anti-CD20 antibody with no Fc changes; also called humanized 2H7v.16; 2H7 version 16
binding result: binds

B2: 2H7.v375 (antibody, human IgG1, kappa)
light: DIQMTQSPSSLSASVGDRVTITCRASSSVSYMHWYQQKPGKAPKPLIYAPSNLASGVPSRFSGSGSGTDFTLTISSLQPEDFATYYCQQWSFNPPTFGQGTKVEIKRTVAAPSVFIFPPSDEQLKSGTASVVCLLNNFYPREAKVQWKVDNALQSGNSQESVTEQDSKDSTYSLSSTLTLSKADYEKHKVYACEVTHQGLSSPVTKSFNRGEC
heavy: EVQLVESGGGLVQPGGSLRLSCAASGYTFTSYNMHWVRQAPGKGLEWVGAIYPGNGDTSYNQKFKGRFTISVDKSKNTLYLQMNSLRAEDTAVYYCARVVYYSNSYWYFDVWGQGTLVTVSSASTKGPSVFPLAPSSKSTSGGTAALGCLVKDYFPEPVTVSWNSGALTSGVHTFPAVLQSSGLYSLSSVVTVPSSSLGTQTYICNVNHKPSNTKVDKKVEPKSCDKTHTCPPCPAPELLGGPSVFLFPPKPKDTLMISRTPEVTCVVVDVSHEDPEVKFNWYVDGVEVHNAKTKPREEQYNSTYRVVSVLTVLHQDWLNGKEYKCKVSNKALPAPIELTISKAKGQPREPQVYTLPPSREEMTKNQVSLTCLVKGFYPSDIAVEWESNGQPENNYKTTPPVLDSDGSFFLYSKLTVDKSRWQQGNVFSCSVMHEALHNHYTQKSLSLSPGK
notes: copies: 2 + 2
EC50 (read off the curve): ~0.6 µg/mL
